Assay results reported in the RNAGym collection of RNA variant scans (doi:10.7554/elife.80360).

B1: HDV Ribozyme (parent)
chain: GGCCGGCAUGGUCCCAGCCUCCUCGCUGGCGCCGGCUGGGCAACAUUCCGAGGGGACCGUCCCCUCGGUAAUGGCGAAUGGGACCCA

Variants of: B1
Assay: self-cleavage, relative activity (ratio to wild type); higher = more cleavage; co-transcriptional

Variant | self-cleavage
GGCCGGCAUGGUCCCAGCCUCCUCGCUGGCGCCGGCUGGGCAACAUUCCGAGGGGACCGUCCCCUCUGUAAUGGCGAAUGGGACCAA [G67U C86A] | 1
GGCCGGCAUGGUCCCAGCCUCCUCGCUGGCGCCGGCUGGGCAACAUUCCGAGGGGACCGUCCCCUCGAUACUGGCGAAUGGGACCCA [G68A A71C] | 0.58
GGCCGGCAUGGUCCCAGCCUCCUCGCUGGCGCCGGCUGGGCAACAUUCCGAGGGGACCGUCCCCUCCGUAAUGCCGAAUGGGACCCA [G67C G74C] | 0.123
GGCCGGCAUGGUCCCAGCCUCCUCGCUGGCGCCGGCUGGGCAACAUUCCGAGGGGACCGUCCCCUCUGUAUUGGCGAAUGGGACCCA [G67U A71U] | 0.992
GGCCGGCAUGGUCCCAGCCUCCUCGCUGGCGCCGGCUGGGCAACAUUCCGAGGGGACCGUCCCCUCGAUAAUGGCGAAUGGGACCCC [G68A A87C] | 0.918
GGCCGGCAUGGUCCCAGCCUCCUCGCUGGCGCCGGCUGGGCAACAUUCCGAGGGGACCGUCCCCUCAGUAAUGGCGUAUGGGACCCA [G67A A77U] | 0.339
GGCCGGCAUGGUCCCAGCCUCCUCGCUGGCGCCGGCUGGGCAACAUUCCGAGGGGACCGUCCCCUCCGUAAGGGCGAAUGGGACCCA [G67C U72G] | 0.231
GGCCGGCAUGGUCCCAGCCUCCUCGCUGGCGCCGGCUGGGCAACAUUCCGAGGGGACCGUCCCCUCGAUAAUGGCGAAUGGGCCCCA [G68A A83C] | 0.519
GGCCGGCAUGGUCCCAGCCUCCUCGCUGGCGCCGGCUGGGCAACAUUCCGAGGGGACCGUCCCCUCGAUAAUGGCGAAUGGGGCCCA [G68A A83G] | 0.522
GGCCGGCAUGGUCCCAGCCUCCUCGCUGGCGCCGGCUGGGCAACAUUCCGAGGGGACCGUCCCCUCUGUAAUGGCGAAUGGAACCCA [G67U G82A] | 0.28
GGCCGGCAUGGUCCCAGCCUCCUCGCUGGCGCCGGCUGGGCAACAUUCCGAGGGGACCGUCCCCUCUGUAAUGGCGAAUGGCACCCA [G67U G82C] | 0.182
GGCCGGCAUGGUCCCAGCCUCCUCGCUGGCGCCGGCUGGGCAACAUUCCGAGGGGACCGUCCCCUCAGUAAAGGCGAAUGGGACCCA [G67A U72A] | 0.532
GGCCGGCAUGGUCCCAGCCUCCUCGCUGGCGCCGGCUGGGCAACAUUCCGAGGGGACCGUCCCCUCUGAAAUGGCGAAUGGGACCCA [G67U U69A] | 0.801
GGCCGGCAUGGUCCCAGCCUCCUCGCUGGCGCCGGCUGGGCAACAUUCCGAGGGGACCGUCCCCUCCGUGAUGGCGAAUGGGACCCA [G67C A70G] | 0.712
GGCCGGCAUGGUCCCAGCCUCCUCGCUGGCGCCGGCUGGGCAACAUUCCGAGGGGACCGUCCCCUCCGUAAUUGCGAAUGGGACCCA [G67C G73U] | 0.322
GGCCGGCAUGGUCCCAGCCUCCUCGCUGGCGCCGGCUGGGCAACAUUCCGAGGGGACCGUCCCCUCCGUAAUGGCGAAUGGGCCCCA [G67C A83C] | 0.293

Variant | self-cleavage
GGCCGGCAUGGUCCCAGCCUCCUCGCUGGCGCCGGCUGGGCAACAUUCCGAGGGGACCGUCCCCUCAGUAAUGGCGAAUGGCACCCA [G67A G82C] | 0.224
GGCCGGCAUGGUCCCAGCCUCCUCGCUGGCGCCGGCUGGGCAACAUUCCGAGGGGACCGUCCCCUCCGUAAUGGCUAAUGGGACCCA [G67C G76U] | 1.11
GGCCGGCAUGGUCCCAGCCUCCUCGCUGGCGCCGGCUGGGCAACAUUCCGAGGGGACCGUCCCCUCCGUAAUGGCAAAUGGGACCCA [G67C G76A] | 1.11
GGCCGGCAUGGUCCCAGCCUCCUCGCUGGCGCCGGCUGGGCAACAUUCCGAGGGGACCGUCCCCUCGAUAAUGACGAAUGGGACCCA [G68A G74A] | 0.51
GGCCGGCAUGGUCCCAGCCUCCUCGCUGGCGCCGGCUGGGCAACAUUCCGAGGGGACCGUCCCCUCGAUAAUGGAGAAUGGGACCCA [G68A C75A] | 0.164
GGCCGGCAUGGUCCCAGCCUCCUCGCUGGCGCCGGCUGGGCAACAUUCCGAGGGGACCGUCCCCUCUGUAAUGGCGAAUGGGAUCCA [G67U C84U] | 0.771
GGCCGGCAUGGUCCCAGCCUCCUCGCUGGCGCCGGCUGGGCAACAUUCCGAGGGGACCGUCCCCUCCGUAAUGGGGAAUGGGACCCA [G67C C75G] | 0.0475
GGCCGGCAUGGUCCCAGCCUCCUCGCUGGCGCCGGCUGGGCAACAUUCCGAGGGGACCGUCCCCUCCGUAAUGGUGAAUGGGACCCA [G67C C75U] | 0.0545
GGCCGGCAUGGUCCCAGCCUCCUCGCUGGCGCCGGCUGGGCAACAUUCCGAGGGGACCGUCCCCUCCGUAAUGGAGAAUGGGACCCA [G67C C75A] | 0.0652
GGCCGGCAUGGUCCCAGCCUCCUCGCUGGCGCCGGCUGGGCAACAUUCCGAGGGGACCGUCCCCUUGGUAAUGGCGAAUGGUACCCA [C66U G82U] | 0.277
GGCCGGCAUGGUCCCAGCCUCCUCGCUGGCGCCGGCUGGGCAACAUUCCGAGGGGACCGUCCCCUCGAUAAUGGCGAAUGGUACCCA [G68A G82U] | 0.324
GGCCGGCAUGGUCCCAGCCUCCUCGCUGGCGCCGGCUGGGCAACAUUCCGAGGGGACCGUCCCCUCAGUAAUGGCGAAUUGGACCCA [G67A G80U] | 0.203
GGCCGGCAUGGUCCCAGCCUCCUCGCUGGCGCCGGCUGGGCAACAUUCCGAGGGGACCGUCCCCUCCGUAAUGGCGAAUGGGACCCU [G67C A87U] | 0.858
GGCCGGCAUGGUCCCAGCCUCCUCGCUGGCGCCGGCUGGGCAACAUUCCGAGGGGACCGUCCCCUCUGUAAUGGCGAAUUGGACCCA [G67U G80U] | 0.25
GGCCGGCAUGGUCCCAGCCUCCUCGCUGGCGCCGGCUGGGCAACAUUCCGAGGGGACCGUCCCCUCCGUAUUGGCGAAUGGGACCCA [G67C A71U] | 0.716
GGCCGGCAUGGUCCCAGCCUCCUCGCUGGCGCCGGCUGGGCAACAUUCCGAGGGGACCGUCCCCUCAGUAAUGGCGAAUGAGACCCA [G67A G81A] | 0.302
